{
  "source": "patent EP4702992A1",
  "about": "“ANTIBODY-DRUG CONJUGATE” (priority 2023, dated 2024)",
  "binders": {"B1": {"name": "D-ADC55-1-8 (antibody, human IgG1, kappa, L234A L235A, V domains shown)", "VH": "QVQLVQSGAEVKKPGASVKVSCKASGYTFTDYYMKWVRQAPGQRLEWMGAFNLNNGDTFYNQKFKGRVTITRDTSASTAYMELSSLRSEDTAVYYCARDVYGYGDYWGQGTSVTVSS", "VL": "DIVMTQSPDSLAVSLGERATINCRASKSVSTSGYSYMHWYQQKPGQPPKLLIYLASNLDSGVPDRFSGSGSGTDFTLTISSLQAEDVAVYYCQHSRELPYTFGGGTKLEIKR", "modifications": "linker-drug LD55-1 (exatecan payload) conjugated to sulfhydryls of reduced interchain disulfide cysteines; average DAR 8.0 per antibody"}},
  "key": {"[1]": {"target": "DLL3 on the surface of NCI-H209, SHP77, NCI-H526, NCI-H82 and NCI-H69 cells (human) (UniProt Q9NYJ7)", "sequence (Q9NYJ7 27-618)": "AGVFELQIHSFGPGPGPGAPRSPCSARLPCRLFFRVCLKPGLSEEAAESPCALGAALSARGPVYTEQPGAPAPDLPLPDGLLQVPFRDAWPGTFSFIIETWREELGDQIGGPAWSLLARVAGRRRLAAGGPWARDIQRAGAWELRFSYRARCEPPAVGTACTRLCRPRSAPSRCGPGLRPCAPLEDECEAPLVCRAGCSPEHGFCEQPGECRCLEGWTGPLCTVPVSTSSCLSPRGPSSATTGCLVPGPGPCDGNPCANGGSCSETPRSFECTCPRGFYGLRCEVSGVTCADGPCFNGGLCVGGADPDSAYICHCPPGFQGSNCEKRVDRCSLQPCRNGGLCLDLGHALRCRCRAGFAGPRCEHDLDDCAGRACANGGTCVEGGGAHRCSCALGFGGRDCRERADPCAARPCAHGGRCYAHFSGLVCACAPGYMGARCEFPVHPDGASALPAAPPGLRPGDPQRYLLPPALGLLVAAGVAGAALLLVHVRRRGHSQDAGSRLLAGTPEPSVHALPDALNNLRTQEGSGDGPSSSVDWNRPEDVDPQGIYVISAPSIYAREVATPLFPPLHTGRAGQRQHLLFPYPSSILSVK", "experiment": "flow cytometry, D-ADC55-1-8 (15 µg/mL) on NCI-H526 cells, anti-human IgG Alexa Fluor 488"}, "[2]": {"target": "DLL3 on the surface of NCI-H209, SHP77, NCI-H526, NCI-H82 and NCI-H69 cells (human) (UniProt Q9NYJ7)", "experiment": "flow cytometry, D-ADC55-1-8 (15 µg/mL) on NCI-H209 cells, anti-human IgG Alexa Fluor 488"}, "[3]": {"target": "DLL3 on the surface of NCI-H209, SHP77, NCI-H526, NCI-H82 and NCI-H69 cells (human) (UniProt Q9NYJ7)", "experiment": "flow cytometry, D-ADC55-1-8 (15 µg/mL) on NCI-H69 cells, anti-human IgG Alexa Fluor 488"}, "[4]": {"target": "DLL3 on the surface of NCI-H209, SHP77, NCI-H526, NCI-H82 and NCI-H69 cells (human) (UniProt Q9NYJ7)", "experiment": "flow cytometry, D-ADC55-1-8 (15 µg/mL) on SHP77 cells, anti-human IgG Alexa Fluor 488"}, "[5]": {"target": "DLL3 on the surface of NCI-H209, SHP77, NCI-H526, NCI-H82 and NCI-H69 cells (human) (UniProt Q9NYJ7)", "experiment": "flow cytometry, D-ADC55-1-8 (15 µg/mL) on NCI-H82 cells, anti-human IgG Alexa Fluor 488"}},
  "data": [
    {"binder": "B1", "values": [
      {"measurement": "DLL3+ %", "setting": "[1]", "result": 29.1, "unit": "%"},
      {"measurement": "Experimental well: negative control ratio", "setting": "[1]", "result": 3.73},
      {"measurement": "DLL3+ %", "setting": "[2]", "result": 44.4, "unit": "%"},
      {"measurement": "Experimental well: negative control ratio", "setting": "[2]", "result": 7.73},
      {"measurement": "DLL3+ %", "setting": "[3]", "result": 5.29, "unit": "%"},
      {"measurement": "Experimental well: negative control ratio", "setting": "[3]", "result": 3.03},
      {"measurement": "DLL3+ %", "setting": "[4]", "result": 35.8, "unit": "%"},
      {"measurement": "Experimental well: negative control ratio", "setting": "[4]", "result": 3.23},
      {"measurement": "DLL3+ %", "setting": "[5]", "result": 11.2, "unit": "%"},
      {"measurement": "Experimental well: negative control ratio", "setting": "[5]", "result": 5.02}
    ]}
  ]
}
